Patent US20240352143A1 (Incyte, published 2024)

T1: cell surface CD73 on MDA-MB-231 and A375 cells (human, UniProt P21589 27-549)
T1 construct: A375: moderate level; also called cellular CD73
T1 sequence: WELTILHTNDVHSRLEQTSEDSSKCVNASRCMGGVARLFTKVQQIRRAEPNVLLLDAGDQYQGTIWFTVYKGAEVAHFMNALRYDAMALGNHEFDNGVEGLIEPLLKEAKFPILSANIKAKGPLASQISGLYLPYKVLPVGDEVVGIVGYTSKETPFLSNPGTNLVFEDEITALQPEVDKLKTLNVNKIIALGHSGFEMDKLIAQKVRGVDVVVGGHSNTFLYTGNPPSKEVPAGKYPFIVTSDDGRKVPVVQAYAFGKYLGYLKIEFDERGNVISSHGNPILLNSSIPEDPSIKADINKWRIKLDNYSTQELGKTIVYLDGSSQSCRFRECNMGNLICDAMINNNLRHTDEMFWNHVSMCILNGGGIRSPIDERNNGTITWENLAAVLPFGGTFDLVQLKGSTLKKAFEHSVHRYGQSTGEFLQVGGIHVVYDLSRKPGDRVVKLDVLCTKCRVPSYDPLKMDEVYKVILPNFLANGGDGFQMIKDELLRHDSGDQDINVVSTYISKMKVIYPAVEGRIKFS

T2: recombinant human CD73 (human, UniProt P21589 27-549)
T2 construct: Soluble recombinant CD73 (BPS Bioscience stock in the SPR); also called rhuCD73; human CD73, open conformation
T2 sequence: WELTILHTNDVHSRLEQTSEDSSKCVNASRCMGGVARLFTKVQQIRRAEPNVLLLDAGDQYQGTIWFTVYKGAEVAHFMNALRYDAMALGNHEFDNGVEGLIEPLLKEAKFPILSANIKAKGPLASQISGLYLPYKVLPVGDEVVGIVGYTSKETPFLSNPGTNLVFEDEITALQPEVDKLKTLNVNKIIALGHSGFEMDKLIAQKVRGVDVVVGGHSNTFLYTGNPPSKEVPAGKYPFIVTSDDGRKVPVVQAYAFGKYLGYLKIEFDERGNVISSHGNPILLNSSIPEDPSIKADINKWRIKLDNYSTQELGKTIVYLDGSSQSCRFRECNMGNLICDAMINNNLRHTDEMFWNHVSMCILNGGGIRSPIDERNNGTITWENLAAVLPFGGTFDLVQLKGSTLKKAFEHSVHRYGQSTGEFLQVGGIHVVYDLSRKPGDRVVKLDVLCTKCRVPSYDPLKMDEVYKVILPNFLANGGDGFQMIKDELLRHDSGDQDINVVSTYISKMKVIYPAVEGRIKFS


What was measured:
[1] = biological target: T1, cell surface CD73 on MDA-MB-231 and …; assay: flow cytometry on MDA-MB-231 cells, antibody 30 min on ice, PE-conjugated secondary antibody, GMFI
Experimental: The cells were stained with the indicated concentration of antibodies for 30 minutes on ice (FIG. 2A and FIG. 2B). Next, the cells were washed and stained using goat anti-mouse secondary conjugated to phycoerythrin (PE) for 30 minutes on ice. The cells were then washed and analyzed by flow cytometry. Geometric mean fluorescence intensity (GMFI) of CD73 staining was graphed (FIG. 2A and FIG. 2B).

recombinant human CD73 = biological target: T2, recombinant human CD73; assay: enzyme inhibition assay with recombinant full length CD73, adenosine by LC-MS, mixed-inhibition model
Experimental: Briefly, the inhibition potencies of the agents were measured in an enzyme assay using adenosine ¹³C₁₀, ¹⁵N₅ 5′-monophosphate sodium salt solution (650676, Sigma) as substrate and detecting product, adenosine by LC-MS. Antibody agents were serially diluted in buffer and a volume of 5 μL was transferred to a 96-well plate. 20 μL of 0.5 μM recombinant CD73 in assay buffer (25 mM Tris, 5 mM MgCl₂, 0.005% Brij35 pH 7.5) was added to the plate and pre-incubated for 2 hours at 25° C. The assay was initiated by the addition of a 25 μL solution containing AMP at various concentrations. The reactions were run for 0.5 hr at 25° C. and then quenched with 50 μL of methanol.

| Binder | EC50 (read off the curve) [1] [µg/mL] | Ki (recombinant human CD73) [nM] |
| --- | --- | --- |
| CL25_hu_8-5 (antibody, V domains shown, Humanized CL25 variant) VH: QVQLVQSGAEVKKPGASVKVSCKASGYTFTSYGLSWVRQATGQGLEWMGEIYPGSGNTYYNEKFKGRVTMTRNTSISTAYMELSSLRSEDTAVYYCARYDYLGSSYGFDYWGAGTTVTVSS VL: DIVMTQSPDSLAVSLGERATINCKASQDVSTAVAWYQQKPGQPPKLLIYSASYRYSGVPDRFSGSGSGTDFTLTISSLQAEDVAVYYCQQHYNTPYTFGGGTKLEIK | ~0.06 |  |
| HzCL25 (antibody, human IgG1, kappa, N297A, V domains shown, Humanized IgG1/kappa with N297A (EU); also called HzCL25 IgG; humanized CL25) VH: EVQLVQSGAEVKKPGESLKISCKGSGYTFTSYGLSWVRQMPGKGLEWMGEIYPGSGNTYYNEKFKGQVTISADKSISTAYLQWSSLKASDTAMYYCARYDYLGSSYGFDYWGAGTTVTVSS VL: DIVMTQSPDSLAVSLGERATINCKASQDVSTAVAWYQQKPGQPPKLLIYSASYRYSGVPDRFSGSGSGTDFTLTISSLQAEDVAVYYCQQHYNTPYTFGGGTKLEIKR |  | 0.3 |
